Measured values: the RNAGym collection of RNA variant scans (doi:10.1093/molbev/msab373)

B1: Azoarcus group I ribozyme (parent)
chain: GUGCCUUGCGCCGGGAAACCACGCAAGGGAUGGUGUCAAAUUCGGCGAAACCUAAGCGCCCGCCCGGGCGUAUGGCAACGCCGAGCCAAGCUUCGGCGCCUGCGCCGAUGAAGGUGUAGAGACUAGACGGCACCCACCUAAGGCAAACGCUAUGGUGAAGGCAUAGUCCAGGGAGUGGCGAAAGUCACACAAACCGG

Variants of: B1
Assay: reverse-splicing fitness (ratio to wild type); higher = more active; in vitro selection; Mg2+ level not given
Summary of the method: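 An in vitro group I ribozyme library with randomized positions was T7-transcribed and gel-purified. In triplicate, 10 pmol RNA in EPPS pH 7.5 was reacted with 50 pmoles of a 30-nt RNA substrate for 1 h at 37 °C across several added MgCl2 levels (1–48 mM), then stopped with EDTA. Products were reverse transcribed from a substrate-complementary primer, PCR-amplified and sequenced (HiSeq 4000). Fitness is a variant's read proportion after selection over that before, normalised to wild type.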
A111U A120C C150U U176A showed a reverse-splicing fitness of 0.154. Work on A111U A120C C150U U176C yielded a reverse-splicing fitness of 0.204. In the case of A111U A120C C150U U176G, the reverse-splicing fitness is reported as 0.0321. A111U A120G C150A C169G U176A gave a reverse-splicing fitness of 0.0251. For A111U A120G C150A C169G U176C, the reverse-splicing fitness was 0.0291. Variant A111U A120G C150A C169G U176G has a reverse-splicing fitness of 0.00494. A111U A120G A145C C150U C169A U176C showed a reverse-splicing fitness of 0.00998. A111U A120G A145C C150U C169A U176G gave a reverse-splicing fitness of 0.00531. A111U A120G A145C C150U C169A U176A gave a reverse-splicing fitness of 0.012. In the case of A111U A120G A145C C150G C169U, the reverse-splicing fitness is reported as 0.0237. For A111U A120G A145C C150G C169A, the reverse-splicing fitness was 0.0154. A111U A120G A145C C150G C169G showed a reverse-splicing fitness of 0.0237. A111U A120U A145C C150U showed a reverse-splicing fitness of 0.15. A111U A120U A145C C150A showed a reverse-splicing fitness of 0.0261. Work on A111U A120U A145C C150G yielded a reverse-splicing fitness of 0.0741. For A111U A120G A145C C169U U176A, the reverse-splicing fitness was 0.0455. Work on A111U A120G A145C C169U U176C yielded a reverse-splicing fitness of 0.0453. Variant A111U A120G A145C C169U U176G has a reverse-splicing fitness of 0.00629. A111U A120G A145U C150A U176C showed a reverse-splicing fitness of 0.018. Variant A111U A120G A145U C150A U176A has a reverse-splicing fitness of 0.0129. For A111U A120G A145U C150A U176G, the reverse-splicing fitness was 0.00474. With A111U A120C U176C the reverse-splicing fitness was 0.28. A111U A120C U176A showed a reverse-splicing fitness of 0.277. A111U A120C U176G gave a reverse-splicing fitness of 0.0439. Variant A111U A120G C150G C169G has a reverse-splicing fitness of 0.018. A111U A120G C150G C169A gave a reverse-splicing fitness of 0.0142. A111U A120G C150G C169U showed a reverse-splicing fitness of 0.019. A111U A120G A145C C150A C169G U176C showed a reverse-splicing fitness of 0.015. With A111U A120G A145C C150A C169G U176A the reverse-splicing fitness was 0.0261. A111U A120G A145C C150A C169G U176G gave a reverse-splicing fitness of 0.00529. In the case of A111U A120G A145C C150G C169U U176A, the reverse-splicing fitness is reported as 0.0163. In the case of A111U A120G A145C C150G C169U U176G, the reverse-splicing fitness is reported as 0.00521. A111U A120G A145C C150G C169U U176C gave a reverse-splicing fitness of 0.0146. A111U A120C C169A U176A showed a reverse-splicing fitness of 0.0174. A111U A120C C169A U176C showed a reverse-splicing fitness of 0.017. Variant A111U A120C C169A U176G has a reverse-splicing fitness of 0.00415. With A111U A120G C150A U176C the reverse-splicing fitness was 0.0216. In the case of A111U A120G C150A U176A, the reverse-splicing fitness is reported as 0.0147. Variant A111U A120G C150A U176G has a reverse-splicing fitness of 0.00685. In the case of A111U A120G U176A, the reverse-splicing fitness is reported as 0.0388. In the case of A111U A120G U176G, the reverse-splicing fitness is reported as 0.00656. Work on A111U A120G U176C yielded a reverse-splicing fitness of 0.0497. With A111U A120G A145G C169U U176G the reverse-splicing fitness was 0.00601. Variant A111U A120G A145G C169U U176C has a reverse-splicing fitness of 0.0538. In the case of A111U A120G A145G C169U U176A, the reverse-splicing fitness is reported as 0.0467. A111U A120G C150A C169A gave a reverse-splicing fitness of 0.015. A111U A120G C150A C169G gave a reverse-splicing fitness of 0.0231. Work on A111U A120G C150A C169U yielded a reverse-splicing fitness of 0.0186. Work on A111U A120G A145U C150U U176A yielded a reverse-splicing fitness of 0.0287. Work on A111U A120G A145U C150U U176C yielded a reverse-splicing fitness of 0.0388. For A111U A120G A145U C150U U176G, the reverse-splicing fitness was 0.0059. In the case of A111U A120G A145U C150U C169A U176G, the reverse-splicing fitness is reported as 0.00508. Work on A111U A120G A145U C150U C169A U176A yielded a reverse-splicing fitness of 0.0184. Work on A111U A120G A145U C150U C169A U176C yielded a reverse-splicing fitness of 0.0207. A111U A120G C169A U176C showed a reverse-splicing fitness of 0.0386. A111U A120G C169A U176G showed a reverse-splicing fitness of 0.00454. Variant A111U A120G C169A U176A has a reverse-splicing fitness of 0.0264. For A111U A120G A145C C150A C169U U176C, the reverse-splicing fitness was 0.0114. Work on A111U A120G A145C C150A C169U U176A yielded a reverse-splicing fitness of 0.0208. For A111U A120G A145C C150A C169U U176G, the reverse-splicing fitness was 0.00521. With A111U A120G C169G U176C the reverse-splicing fitness was 0.0539. For A111U A120G C169G U176A, the reverse-splicing fitness was 0.0412. Work on A111U A120G C169G U176G yielded a reverse-splicing fitness of 0.00419. In the case of A111U A120G A145U C150U C169G U176A, the reverse-splicing fitness is reported as 0.0274. Variant A111U A120G A145U C150U C169G U176G has a reverse-splicing fitness of 0.00496. Variant A111U A120G A145U C150U C169G U176C has a reverse-splicing fitness of 0.0378. In the case of A111U A120G A145U C150G C169G U176C, the reverse-splicing fitness is reported as 0.0049. Work on A111U A120G A145U C150G C169G U176G yielded a reverse-splicing fitness of 0.00439. A111U A120G A145U C150G C169G U176A gave a reverse-splicing fitness of 0.00701. For A111U A120C C169G U176G, the reverse-splicing fitness was 0.00402. In the case of A111U A120C C169G U176A, the reverse-splicing fitness is reported as 0.0144. Variant A111U A120C C169G U176C has a reverse-splicing fitness of 0.0168. For A111U A120G C150U C169U, the reverse-splicing fitness was 0.0857. In the case of A111U A120G C150U C169A, the reverse-splicing fitness is reported as 0.0593. In the case of A111U A120G C150U C169G, the reverse-splicing fitness is reported as 0.112. A111U A120G A145G C169A U176A showed a reverse-splicing fitness of 0.0312. Variant A111U A120G A145G C169A U176G has a reverse-splicing fitness of 0.00472. Work on A111U A120G A145G C169A U176C yielded a reverse-splicing fitness of 0.0453. Work on A111U A120G A145U C169U yielded a reverse-splicing fitness of 0.164. Work on A111U A120G A145U C169G yielded a reverse-splicing fitness of 0.213. For A111U A120G A145U C169A, the reverse-splicing fitness was 0.117. With A111U A120U A145C C150U C169A U176C the reverse-splicing fitness was 0.00198. A111U A120U A145C C150U C169A U176A gave a reverse-splicing fitness of 0.00251. A111U A120U A145C C150U C169A U176G gave a reverse-splicing fitness of 0.00275.
